Reference: patent publication US6329500
Values belong to the substance of their own block, whether it stands above or below them.

Tests used:
[1] = biological target: methylamine-modified human α2 -macroglobulin (α2 M-MA) (human) (UniProt P01023); experiment: ^125 I-TGF-β1 in α2 M-MA-coated wells with 0.2 µM unlabeled TGF-β
[2] = biological target: GST-α2 M peptide-fusion protein FP3 (human) (UniProt P01023); experiment: ligand blot; ^125 I-TGF-β1 on PVDF-immobilized FP3 with 0.2 µM unlabeled TGF-β1
[3] = biological target: transforming growth factor-β1 (TGF-β1); experiment: solution-phase competitor of ^125 I-TGF-β1 binding to immobilized α2 M-MA
[4] = biological target: methylamine-modified human α2 -macroglobulin (α2 M-MA) (human) (UniProt P01023); experiment: ^125 I-TGF-β2 in α2 M-MA-coated wells with 0.2 µM unlabeled TGF-β
[5] = biological target: GST-α2 M peptide-fusion protein FP3 (human) (UniProt P01023); experiment: ligand blot; ^125 I-TGF-β2 on PVDF-immobilized FP3 with 0.2 µM unlabeled TGF-β2
[6] = biological target: transforming growth factor-β1 (TGF-β1); experiment: 0.1 nM ^125 I-TGF-β1 in α2 M-MA-coated microtiter wells, 1 h
[7] = biological target: transforming growth factor-β2 (TGF-β2); experiment: 0.1 nM ^125 I-TGF-β2 in α2 M-MA-coated microtiter wells, 1 h

percent decrease of binding [1]: > 75%
percent inhibition of binding [2]: 72%
Substance: transforming growth factor-β1 (TGF-β1) (ligand)

IC50 [3]: 360 nM
Substance: monomeric human α2 -macroglobulin (from UniProt P01023)

percent decrease of binding [4]: > 75%
percent inhibition of binding [5]: 90%
Substance: transforming growth factor-β2 (TGF-β2) (ligand)

amount of ^125 I-TGF-β bound [6]: 3.4 fmol
amount of ^125 I-TGF-β bound [7]: 2.6 fmol
Substance: methylamine-modified human α2 -macroglobulin (α2 M-MA) (from UniProt P01023)
